Experimental data: patent publication US20220025060A1
Read-outs that look alike come from different tables or passages of the source.

Key:
[1] = biological target: His-tagged rhesus monkey CD40 (rhesus-CD40-his) recombinant protein (rhesus monkey) (UniProt F6SNI1); assay: ELISA, Rhesus CD40-his coated
[2] = biological target: His-tagged human CD40 (h-CD40-his) recombinant protein (human) (UniProt P25942); assay: ELISA, human CD40-his coated
[3] = biological target: His-tagged human CD40 (h-CD40-his) recombinant protein (human) (UniProt P25942); assay: ELISA, human CD40-his coated; remark: listed apart in the source
[4] = biological target: His-tagged human CD40 (h-CD40-his) recombinant protein (human) (UniProt P25942); assay: Biacore SPR, antibody captured by anti-human antibody, CD40 antigen as analyte, 1:1 model
[5] = biological target: Fc-tagged human CD40 (h-CD40-Fc) recombinant protein (human) (UniProt P25942); assay: hCD40/hCD40L blocking ELISA, competitor CD40L-his
[6] = biological target: human CD40 on HEK-Blue CD40L cells (HEK293 cells stably transfected with human CD40 gene) (human) (UniProt P25942); assay: HEK293-CD40 cell-binding (so in the source)
[7] = biological target: human CD40 on HEK-Blue CD40L cells (HEK293 cells stably transfected with human CD40 gene) (human) (UniProt P25942); assay: HEK293-CD40 cell-binding (so in the source); remark: listed apart in the source
[8] = biological target: Fc-tagged human CD40 (h-CD40-Fc) recombinant protein (human) (UniProt P25942); assay: hCD40/hCD40L blocking ELISA, competitor CD40L-his; remark: listed apart in the source

Chain of Pfizer control (hIgG4) (antibody) (VH): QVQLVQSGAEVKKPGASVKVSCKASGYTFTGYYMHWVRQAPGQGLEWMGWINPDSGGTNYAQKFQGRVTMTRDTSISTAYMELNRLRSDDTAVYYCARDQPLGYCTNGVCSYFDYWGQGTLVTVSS
Chain of Pfizer control (hIgG4) (antibody) (VL): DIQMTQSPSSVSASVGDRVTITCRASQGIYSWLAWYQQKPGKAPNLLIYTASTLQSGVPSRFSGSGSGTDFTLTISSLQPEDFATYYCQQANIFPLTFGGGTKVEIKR
Chain of His-tagged human CD40 (h-CD40-his) recombinant protein (human) (P25942 21-193 limits assumed): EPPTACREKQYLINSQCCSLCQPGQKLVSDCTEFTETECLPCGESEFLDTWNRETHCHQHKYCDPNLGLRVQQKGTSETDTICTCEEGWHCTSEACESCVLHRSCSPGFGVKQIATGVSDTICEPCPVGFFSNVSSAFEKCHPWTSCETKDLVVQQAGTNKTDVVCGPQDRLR
Chain of human CD40 on HEK-Blue CD40L cells (HEK293 cells stably transfected with human CD40 gene) (human) (P25942 21-277): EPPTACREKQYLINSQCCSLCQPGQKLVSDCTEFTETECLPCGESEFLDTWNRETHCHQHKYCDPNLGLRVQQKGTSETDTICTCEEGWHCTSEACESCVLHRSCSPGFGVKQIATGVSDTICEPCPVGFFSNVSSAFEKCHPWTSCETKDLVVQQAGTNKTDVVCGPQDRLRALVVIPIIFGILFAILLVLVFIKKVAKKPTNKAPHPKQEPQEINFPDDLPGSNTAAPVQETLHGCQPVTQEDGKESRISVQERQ
Chain of Fc-tagged human CD40 (h-CD40-Fc) recombinant protein (human) (P25942 21-193 limits assumed): as the sequence (P25942 21-193 limits assumed) above

Substance	EC50 [1]	EC50 [2]	EC50 [3]	Kd [4]	IC50 [5]	EC50 [6]	EC50 [7]	IC50 [8]
Pfizer control (hIgG4) (antibody)	3.56 ng/mL	5.63 ng/mL	3.98 ng/mL	20.4 nM				
Alligator control (hIgG1) (antibody)	1.24 ng/mL	3.29 ng/mL	1.29 ng/mL	166 nM	647 ng/mL	396 ng/mL	1360 ng/mL	723 ng/mL
